Key:
[1] = molecular target: Bunyamwera virus (BUNV) Gc head domain (aa 478–721) (Bunyamwera virus) (UniProt P04505); experiment: crystal structure
[2] = molecular target: La Crosse virus (LACV) Gc head domain (aa 477–722), tryptic fragment of the variable region (aa 477–911) (La Crosse virus) (UniProt Q8JPR1); experiment: crystal structure

Bunyamwera virus (BUNV) Gc head domain (aa 478–721), sequence (P04505 478-721): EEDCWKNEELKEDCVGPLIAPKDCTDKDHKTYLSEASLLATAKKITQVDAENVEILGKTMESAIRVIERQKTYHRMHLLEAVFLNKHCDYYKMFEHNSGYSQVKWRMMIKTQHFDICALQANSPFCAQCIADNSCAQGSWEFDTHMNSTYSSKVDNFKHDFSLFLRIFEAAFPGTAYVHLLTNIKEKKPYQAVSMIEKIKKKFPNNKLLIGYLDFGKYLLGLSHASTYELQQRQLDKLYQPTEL
La Crosse virus (LACV) Gc head domain (aa 477–722), tryptic fragment of the variable region (aa 477–911), sequence (Q8JPR1 477-722): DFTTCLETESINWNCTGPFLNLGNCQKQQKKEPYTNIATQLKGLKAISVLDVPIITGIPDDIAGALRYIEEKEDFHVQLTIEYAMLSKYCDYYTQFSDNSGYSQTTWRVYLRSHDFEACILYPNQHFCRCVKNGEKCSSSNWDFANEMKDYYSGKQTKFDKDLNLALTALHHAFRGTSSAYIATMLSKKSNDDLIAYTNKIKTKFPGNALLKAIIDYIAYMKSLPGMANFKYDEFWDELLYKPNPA

Row | Substance | stoichiometry N [1] | stoichiometry N [2]
1 | Bunyamwera virus (BUNV) Gc head domain (aa 478–721) (from UniProt P04505 478-721) (domain or fragment) | 3 | –
2 | La Crosse virus (LACV) Gc head domain (aa 477–722), tryptic fragment of the variable region (aa 477–911) (from UniProt Q8JPR1 477-722) (domain or fragment) | – | 3

— PMC6382863
